Assay results reported in patent US20030100069A1 (Human Genome Sciences, published 2003).

T1: F-TR8-615 (FLAG epitope-tagged TR8, residues 33-615 of FIGS. 1A-C) (human) (UniProt Q9Y6Q6)
T1 sequence: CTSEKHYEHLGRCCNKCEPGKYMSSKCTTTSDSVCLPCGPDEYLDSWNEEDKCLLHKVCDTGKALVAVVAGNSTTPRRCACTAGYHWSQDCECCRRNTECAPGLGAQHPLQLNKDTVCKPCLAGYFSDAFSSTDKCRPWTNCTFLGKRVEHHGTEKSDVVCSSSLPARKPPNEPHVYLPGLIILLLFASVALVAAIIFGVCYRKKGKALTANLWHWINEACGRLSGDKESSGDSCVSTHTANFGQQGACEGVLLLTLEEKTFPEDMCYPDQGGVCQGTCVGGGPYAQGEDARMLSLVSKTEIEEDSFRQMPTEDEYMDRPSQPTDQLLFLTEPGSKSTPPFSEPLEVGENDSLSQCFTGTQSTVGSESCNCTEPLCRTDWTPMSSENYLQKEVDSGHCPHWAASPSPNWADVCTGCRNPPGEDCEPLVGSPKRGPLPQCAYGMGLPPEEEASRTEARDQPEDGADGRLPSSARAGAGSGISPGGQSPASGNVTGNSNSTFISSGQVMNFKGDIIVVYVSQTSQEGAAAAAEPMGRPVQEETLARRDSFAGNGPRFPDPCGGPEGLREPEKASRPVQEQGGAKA

T2: endogenous TRAF2 (of HeLa and 293 cells) (human, UniProt Q12933 2-501)
T2 construct: 293 is called a human embryonic kidney cell line; HeLa is a human line; Detected by western blot with anti-TRAF2 polyclonal antibodies; also called TNF receptor-associated factor 2
T2 sequence (looked up): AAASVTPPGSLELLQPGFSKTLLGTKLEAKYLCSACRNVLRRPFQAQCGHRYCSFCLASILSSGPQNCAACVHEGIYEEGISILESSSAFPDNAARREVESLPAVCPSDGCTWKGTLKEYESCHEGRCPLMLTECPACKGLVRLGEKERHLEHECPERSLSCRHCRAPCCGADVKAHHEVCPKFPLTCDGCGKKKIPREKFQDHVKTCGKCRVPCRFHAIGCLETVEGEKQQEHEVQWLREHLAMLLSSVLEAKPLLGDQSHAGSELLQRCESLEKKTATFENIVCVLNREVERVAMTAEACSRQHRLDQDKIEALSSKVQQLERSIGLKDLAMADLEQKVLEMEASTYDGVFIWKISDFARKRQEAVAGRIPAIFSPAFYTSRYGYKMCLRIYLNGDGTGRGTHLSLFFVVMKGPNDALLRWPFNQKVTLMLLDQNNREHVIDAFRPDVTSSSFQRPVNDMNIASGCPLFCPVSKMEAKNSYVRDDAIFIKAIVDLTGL


What was measured:
[1] = target: T1, F-TR8-615 (FLAG epitope-tagged TR8, residues 33-615 of FIGS. 1A-C) (human); assay: anti-FLAG co-immunoprecipitation of 35S-labeled TRAF from 293 lysates, PhosphorImager quantitation
[2] = target: T2, endogenous TRAF2 (of HeLa and 293 cells); assay: anti-FLAG co-immunoprecipitation from HeLa and 293 lysates, anti-TRAF2 western blot
Description: Immunoprecipitations and JNK Kinase Assays—From transient transfected cells, lysates were prepared and immunoprecipitated using anti-FLAG-conjugated agarose or anti-JNK1 and protein A/G sepharose for 1 hr. Where indicated, ³⁵S-labeled proteins were added to the lysate prior to immunoprecipitation. Beads were collected by centrifugation and washed four times in lysis buffer followed by two washes in kinase buffer (20 mM TRIS, pH 8, 50 mM NaCl, and 1 mM DTT). For coimmunoprecipation, proteins were eluted in SDS-sample buffer, boiled, and subjected to SDS-PAGE. Analysis of JNK activity was performed using exogenously added GST-Jun(1-79) as a substrate as previously described (Haridas et al., J. Immunol. 160:3152-3162 (1998)). Quantitation of JNK activity and ³⁵S-labeled TRAF binding was analyzed using a PhosphoImager and Imagequant Software (Molecular Dynamics, Sunnyvale, Calif.).
TRAF2, TRAF5, and TRAF6 Interact with the C-Terminus of TR8—Since most of the TNFR family members utilize TRAFs as signaling components and that TR8 contains putative TRAF binding domains, we examined the ability for TR8 to interact with various TRAFs. […] After 24-36 hr, cell lysates were prepared and epitope-tagged receptors were immunoprecipitated with anti-FLAG conjugated-agarose. Coprecipitation of endogenous TRAF2 was detected by western blotting with anti-TRAF2 polyclonal antibodies. […] Membranes were also probed with anti-FLAG to insure precipitation of epitope-tagged receptors (data not shown).

in vitro translated 35S-labeled TRAF5, sequence (O00463 whole entry): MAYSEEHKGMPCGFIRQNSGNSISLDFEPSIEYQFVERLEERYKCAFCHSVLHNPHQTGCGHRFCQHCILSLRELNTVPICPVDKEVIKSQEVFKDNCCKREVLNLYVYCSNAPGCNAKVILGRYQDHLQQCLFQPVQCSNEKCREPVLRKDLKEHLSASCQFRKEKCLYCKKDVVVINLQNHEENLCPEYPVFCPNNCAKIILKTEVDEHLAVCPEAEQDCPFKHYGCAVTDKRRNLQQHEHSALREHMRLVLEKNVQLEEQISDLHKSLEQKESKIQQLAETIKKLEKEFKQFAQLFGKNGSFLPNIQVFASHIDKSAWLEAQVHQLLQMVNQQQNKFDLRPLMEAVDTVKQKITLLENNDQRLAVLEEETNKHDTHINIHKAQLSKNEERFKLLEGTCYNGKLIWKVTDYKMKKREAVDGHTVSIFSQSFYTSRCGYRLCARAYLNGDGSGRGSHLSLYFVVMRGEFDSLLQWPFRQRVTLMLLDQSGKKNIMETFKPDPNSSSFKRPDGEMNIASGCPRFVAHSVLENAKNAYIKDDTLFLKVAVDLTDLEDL

Row | Molecule | fold increase in binding relative to vector transfected cells [1] [fold] | binding result [2]
1 | in vitro translated 35S-labeled TRAF5 | 11 | –
2 | F-TR8-530 (FLAG-tagged TR8 C-terminal deletion lacking 85 amino acids) (receptor, not shown: small tags and cut ends, also called F-TR8 deletion mutant) CTSEKHYEHLGRCCNKCEPGKYMSSKCTTTSDSVCLPCGPDEYLDSWNEEDKCLLHKVCDTGKALVAVVAGNSTTPRRCACTAGYHWSQDCECCRRNTECAPGLGAQHPLQLNKDTVCKPCLAGYFSDAFSSTDKCRPWTNCTFLGKRVEHHGTEKSDVVCSSSLPARKPPNEPHVYLPGLIILLLFASVALVAAIIFGVCYRKKGKALTANLWHWINEACGRLSGDKESSGDSCVSTHTANFGQQGACEGVLLLTLEEKTFPEDMCYPDQGGVCQGTCVGGGPYAQGEDARMLSLVSKTEIEEDSFRQMPTEDEYMDRPSQPTDQLLFLTEPGSKSTPPFSEPLEVGENDSLSQCFTGTQSTVGSESCNCTEPLCRTDWTPMSSENYLQKEVDSGHCPHWAASPSPNWADVCTGCRNPPGEDCEPLVGSPKRGPLPQCAYGMGLPPEEEASRTEARDQPEDGADGRLPSSARAGAGSGISPGGQSPASGNVTGNSNS | – | no binding

The next lines start with the values.

Row | fold increase in binding relative to vector transfected cells [1] [fold] | binding result [2] | Molecule
3 | 5 | – | in vitro translated 35S-labeled TRAF6
4 | – | no binding | F-TR8-330 (FLAG-tagged TR8 C-terminal deletion lacking 285 amino acids) (receptor, not shown: small tags and cut ends, The C-terminal limit is inferred from the construct name and the stated deletion of 285 residues; also called F-TR8 deletion mutant) CTSEKHYEHLGRCCNKCEPGKYMSSKCTTTSDSVCLPCGPDEYLDSWNEEDKCLLHKVCDTGKALVAVVAGNSTTPRRCACTAGYHWSQDCECCRRNTECAPGLGAQHPLQLNKDTVCKPCLAGYFSDAFSSTDKCRPWTNCTFLGKRVEHHGTEKSDVVCSSSLPARKPPNEPHVYLPGLIILLLFASVALVAAIIFGVCYRKKGKALTANLWHWINEACGRLSGDKESSGDSCVSTHTANFGQQGACEGVLLLTLEEKTFPEDMCYPDQGGVCQGTCVGGGPYAQGEDARMLSLVS
5 | 145 | – | in vitro translated 35S-labeled TRAF2 (protein, UniProt Q12933 2-501, looked up, species assumed, 35S-labeled) TNF receptor-associated factor 2: AAASVTPPGSLELLQPGFSKTLLGTKLEAKYLCSACRNVLRRPFQAQCGHRYCSFCLASILSSGPQNCAACVHEGIYEEGISILESSSAFPDNAARREVESLPAVCPSDGCTWKGTLKEYESCHEGRCPLMLTECPACKGLVRLGEKERHLEHECPERSLSCRHCRAPCCGADVKAHHEVCPKFPLTCDGCGKKKIPREKFQDHVKTCGKCRVPCRFHAIGCLETVEGEKQQEHEVQWLREHLAMLLSSVLEAKPLLGDQSHAGSELLQRCESLEKKTATFENIVCVLNREVERVAMTAEACSRQHRLDQDKIEALSSKVQQLERSIGLKDLAMADLEQKVLEMEASTYDGVFIWKISDFARKRQEAVAGRIPAIFSPAFYTSRYGYKMCLRIYLNGDGTGRGTHLSLFFVVMKGPNDALLRWPFNQKVTLMLLDQNNREHVIDAFRPDVTSSSFQRPVNDMNIASGCPLFCPVSKMEAKNSYVRDDAIFIKAIVDLTGL
6 | – | no binding | F-TR8-427 (FLAG-tagged TR8 C-terminal deletion lacking 188 amino acids) (receptor, not shown: small tags and cut ends, The C-terminal limit is inferred from the construct name and the stated deletion of 188 residues; also called F-TR8 deletion mutant) CTSEKHYEHLGRCCNKCEPGKYMSSKCTTTSDSVCLPCGPDEYLDSWNEEDKCLLHKVCDTGKALVAVVAGNSTTPRRCACTAGYHWSQDCECCRRNTECAPGLGAQHPLQLNKDTVCKPCLAGYFSDAFSSTDKCRPWTNCTFLGKRVEHHGTEKSDVVCSSSLPARKPPNEPHVYLPGLIILLLFASVALVAAIIFGVCYRKKGKALTANLWHWINEACGRLSGDKESSGDSCVSTHTANFGQQGACEGVLLLTLEEKTFPEDMCYPDQGGVCQGTCVGGGPYAQGEDARMLSLVSKTEIEEDSFRQMPTEDEYMDRPSQPTDQLLFLTEPGSKSTPPFSEPLEVGENDSLSQCFTGTQSTVGSESCNCTEPLCRTDWTPMSSENYLQKEVDS
